Laboratory results from publication PMC7021487.

Biological target: GFP Pavarotti co-expressed with exogenous Trc (greater pool phosphorylated at S745) (D. melanogaster)
Assay: co-IP; GFP Pavarotti (WT, S745A, or WT with co-expressed Trc) over-expressed in HEK 293 FT cells; lysate in coIP buffer (50 mM Tris pH 7.5, 150 mM NaCl, 1.5% Triton X-100, 1 mM EDTA, 1 mM NaVO3); precipitated with GFP-Trap-M (single chain anti-GFP) beads, washed 3x; blot for endogenous 14-3-3

endogenous 14-3-3 ξ (HEK 293 FT cells) (from UniProt P63104 1-245) (natural protein)
increase of the co-precipitated interaction against GFP Pavarotti without Trc: 60%
